Source: patent JP2007535905A

Biological target: SM5−1抗原(BIAcore測定に用いた形は記載なし)
Experiment: BIAcore (Pharmacia), kinetic analysis after Karlsson et al.

Kd: 9.31 nM
B1: 抗ヒトSM5−1ヒト化抗体(ReSM5−1) (antibody, V domains shown)
VH: QVQLVQSGGGVVQPGRSLRLSCKASGYTFTSYVMHWVRQAPGKGLEWIGYIVPYNDGTKYNEKFKGRFTISSDKSKSTAFLQMDSLRPEDTAVYYCARGSRYDWYLDYWGQGTPVTVSS
VL: NIMMTQSPSSLSASVGDRVTITCKSSQSVLYSSNQKNYLAWYQQTPGKAPKLLIYWASTRESGVPSRFSGSGSGTDYTFTISSLQPEDIATYYCHQYFSSYTFGQGTKLQITR
